Experimental data published in the domain aggregation screens of Martell et al. (2025).

Experiment: soluble fraction after stress (log2 fold change); higher = more stays soluble; pooled small domains, quantitative proteomics
Details: stress: 50 degC
In short: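 Quantitative proteomics served as the high-throughput read-out for pooled custom libraries of small protein domains. Each was stressed at 50°C. Aggregation propensity is expressed as the base-two log fold change in soluble protein after stress. A higher value means a larger share of the protein remains in solution.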

Row | Sequence | soluble fraction (log2)
1 | HMIEKGSDALEKELRKNNLSINEFLTNKNIDIILDELKLKDIDDLYVNIALGKYTPNQIIKIVNK | 0.237
2 | HMDYNSYGLTERELELVDYVLKGYSRKEMAEASGLKVNTIGSYMKKIYRKLNIHNRTELKERFI | -0.37
3 | HMNADRIVGQTAKVIHPITPDEKGRVMVDNLDWAAAAQNRGESFEVGEEVSIVRIEGVTVYVQK | 0.209
4 | HMGQKMLTIELQEKVNKMPDNLASYDLKLSADGMSLIYKYSLKSERTGITALLQELKNAGLVMRDLKTEQ | -0.0274
5 | HMLDEPPVSQTLTTYDREHMALYLRLLDSARDGADWREAVQILFGLDPTRDPLRSRHVHDTHLARARWM | -0.131
6 | HMSNWYGTVVKIQPRPNAQAADTAVVKLLDGSEHRFPVWADHLTTIEVGSRLKKLSGGWDPVLMDPEETF | -0.454
7 | HMNNTIKFSVDENNSGKRLDVYLTENINHLTRSFLKKLIEKEQVKLNKKVLTSPATKVKTKDQITINIIE | 0.172
8 | HMKIQTYEDFRNAYPDIQGSLFGSAERYKTDLDWGDVAAKYDADEELKNVRNIFQLVRRYEQKYS | 0.332
9 | HMSFVDFYGLFTTELQRLAELPVTADELIKNTGLHKSQLTDWLKRAEEDGVVKKLNRPVRYQVEKK | -0.987
10 | HMQGEVVTNRSVIDMSRAGLSADIIRAKILRSDTNFDVTAKALIELKESGVPDDIIALMLERADS | 0.128
11 | HMFMMVAGHLQIKNEKYYMVLELRTEQGERKTKWIGTGLAVKGNKRRAEAMLEETRTKYLSPV | -1.95
12 | HMVNYKEILRLSAEGNSQRQIAAGSGNSRNTVIEVLEAARARGITWPLDEPVTNEQLEAILFPNRY | 0.134
13 | HMNPETLTNGSVVKMSKANLSDELIIDMINNSPARFDLSSGALRSLEGEGVSKAVIESMKRATSG | 0.191
14 | HMDIMTVGERVKKLAEKQGISLRELAKKAELSYNTVYSITRRGSERVAPDTISRLANALGVNVNELT | 0.0708
15 | HMAQLPPTATARATSDVSGLTASAALRTLLEQGFVPQIHGSGKVSRQHPPAGTLLEPGSTIQLFLEPS | 0.354
16 | HMEKYTDDLEIAAEIARLETLMEGNGRVLIRPSGTEPLVRVMIEGNDIEQITKLAEDLAALLNKRF | -0.747
17 | HMKSILDDVVGLGPVRKKALLSAAGGFRKLRDMDVDEVIGLGAVPEEVAREVVTVLAQYNGERDRVEGL | -0.0545
18 | HMEVADAAQRKILQALQVQPLTVEQLSQELRTDTGDLLVSLSMMEITGLIRREAGNTFLAVFAPK | -0.448
19 | HMSEVSEILTRARFFAGVKTDAELSTLLKIPYGTLIGWKTRKNIPESRIAQMALILGIRRDTLIPA | -1.71
20 | HMSATPQRMSIINELDSARKNLSAYDLRDSLKDKGHSFNISTIYRVLSFWIDVGVVHKMDSSNTYL | 0.147
21 | HMESYWVVLRPMAAGTQIGANDLGYRSVALGAAAKNYLAASTNPIGSITRRRLVAGELLQGSSLTDDARA | -0.873
22 | HMSLGSNISRLRAEKHLSQGDLAEALDVSRQSVSKWETDGSVPDLDKLVKLSRIFGVTLDELVTGTP | 0.0174
23 | HMAEVGDFTLAELIKVLFNEAGVLKAPVELRNDNTGGLQYRVGAYTDSETGWETIASIADLKGA | -0.436
24 | HMGGKWKAIIIYHLKNGPKRFGELRRALISSTETVLSNQLKQLEQDGLVSRQVFGTKPPLKTVYSLTDFG | -3.06
25 | HMDSPVEEWANRGLAYDPSLVTETMAKLYAKQGQIGLARKAFKRLALIYPEKSVYFAFQLKKLSNN | -1.63

Row | Sequence | soluble fraction (log2)
26 | HMDATIGGFKITDSAIYSGVKNNVNAGVRGTYIDKDGQIAFGDSNSYLKYYKDTDGKWKLEVSASSVKF | 0.139
27 | HMKQESSEDLLNEVIDKVIDSNPDEKNRLLDGELKLVSFFMGQVMKETKGKANPGVINGLIKKKFNI | -0.675
28 | HMSKKTQKDEVVDLFLKTGNEPLHYKEISKKTGIIVHNVRRITGQNVVGKTDNPVFKRVSPGVYKLID | -0.546
29 | HMQESTILPAQKSAISSLATSAGFSSENLKRYLLQNYGVDLKDLTRSQGAEVIKAFQSGNVSKP | 0.0882
30 | HMTGENWAERSRQLAAAGLLVLGKEAQEKIASLPNLIPLIEAAAASDTRLLNAQTIDELLSFVPTEETI | -0.05
31 | HMPIDQAKRKKEIIQNFGIRKIYKFSEIFDLKFGRDNIIVTFLIILDMIKEGVVEINENKEEIEFEYK | -0.166
32 | HMNKELVVPDLTDMRVKDAEFEAHQVGMRTEIVDSVYVRRLKRGYVYKQNPVPGSKVKKGRRIALTINAV | 0.202
33 | HMKIELTDQQKSLVVDEWNKGEANPPSLLQLIRLAYPDQPHLDGRSKEGKAVKAFLATRDINPLA | 0.0239
34 | HMNLDPHVVGHRLRDLRTRRDLTLADVAAETDISVSTLSRLESGSRRATLELLVPLARTYRVTLDELVDA | -0.66
35 | HMNKKLEMKIEQLDLSVRLFNSLKRSGIYTVAQIIKLTEEDVMRFRSLGRKSFKELKEKLSEHGLEFE | -2.15
36 | HMDRRDEYHQHLLRLLLSGEIRDKDELQRRKVKLSGEYGLAGVPKNSETLALVPPDRLPEVLDILR | 0.065
37 | HMSASEKLFEARKNLNIVNVLGKNPVDRYDIVKILKHGDHYHIYDSKGNEGITYTNPKSLYPEAEFGEYQG | 0.12
38 | HMELDFNSVYRQLNHEQKQAYQSIKSVLEQKISGSELDKKLKQAQQAFVAKFKENPNFEVPK | 0.31
39 | HMKKLPDDANDIIERVSSRLAQKFRFGYHTIDDMKQQAALFAWEGIYDSWDDSRPLENFLWIHVRNRLYN | -0.00948
40 | HMSKHATLLEALAELTVKLKPHTQLPSERQLSEDFGVSRMTLRRAIDVMQSRGYIYTVPSKGLYVSEP | -1.59
41 | HMADTSLDHLGVLVRHASDVDAWAEFFENRGVTLASQPRTHRDGARSFYVDDPDGNRVQVIYHPPI | -0.498
42 | HMTQLPEVPVERGMVLEEVQSGWVGAVTRVEKSGGMHVVALEDRRGKSRSFRLGFGFLLEGQPIRLMPPAP | -1.42
43 | HMSFNISPTKKLILELIMNGTAAVEAIAVKAGISKGMAYNHLRELRSMGYITDEGGYKITDSGRLAV | -0.414
44 | HMQYSIQVNKLLKAMREDVWYTANEILDLLKLKSKETLRKNYLDPAINNKLIILELPDKPTSRNQRYKI | -1.66
45 | HMAIDINKIYSEIKKKIPNQDNHIKEILSIIWRDFNNYQNIKSRSILINGEKSSPKKEIFNIIEDNINIPV | 0.0154
46 | HMIDMQIDTARFGTLGVDDDKIITFPKGLPGFEDERRFFLMDHSGSSKIKWLHSADNPGLALV | -0.0658
47 | HMNNFNVVVGKAIKNSFNTRENYITINAGKVLGIKTDMGVINDKGIVGIVEKTSKDFATIQSVLNIKS | 0.00115
48 | HMSMDPYTVLGVNKSSTDSQIKNAYKNLAKQHHPDRGGNEAKFKEISTAYEQIKTAEKRQQYDMSQQF | 0.383
49 | HMNETHANKVYNFLKKKKKPLSAYEILKELASEGISAPTTIYRALNKLVSNGLIHKIESLNAWTV | 0.318
50 | HMYYQEDHDIILEETEDVTDPYLITLRGYIFLNNLQWVAARQAFLSADERFRHRHYSALIAPIMQTIDNAA | -0.013
